Measured values: article PMC6659632, “Preferential phosphatidylinositol 5-phosphate binding contributes to a destabilization of the VHS domain structure of Tom1” (Scientific Reports, 2019)

Target: T1, ubiquitin (human, UniProt P0CG48 1-76)
T1 construct: ubiquitin, human; the cut product (one ubiquitin unit) of the polyubiquitin precursor; Construct was a gift (Dr. Julie Forman-Kay); also called human ubiquitin
Assay: ITC; ubiquitin (5 mM) in the syringe, Tom1 VHS (50 uM) in the sample cell; 25 °C; 20 mM HEPES (pH 7.4), 150 mM KCl; one-site binding model; nonreducing conditions
Details: both partners purified

B1: Tom1 VHS domain (domain or fragment, human, UniProt O60784 20-152, looked up)
chain: ATDGSLQSEDWALNMEICDIINETEEGPKDALRAVKKRIVGNKNFHEVMLALTVLETCVKNCGHRFHVLVASQDFVESVLVRTILPKNNPPTIVHDKVLNLIQSWADAFRSSPDLTGVVTIYEDLRRKGLEFP
notes: Tom1 (target of Myb1), human, N-terminal VHS domain; measured average mass 15,708.01 Da, predicted 15.7 kDa; also called VHS domain of Tom1; target of Myb1 VHS domain; source: E. coli (Rosetta), GST fusion purified on glutathione beads, cleaved with thrombin, size-exclusion chromatography
- Kd: 695 µM
